Laboratory results from the supplement of paper PMC9112550, “Optimization of the antimicrobial peptide Bac7 by deep mutational scanning” (BMC Biology, 2022).

Tested on: Escherichia coli TOP10
Experiment: shrunken log2 fold change of peptide-encoding DNA abundance (4.5 h post-induction vs induction); higher = less antimicrobial activity (less host growth inhibition)
Settings: time post-induction: 4.5 h; library: site-saturation at positions 5, 18, 19, 20
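Further: peptides expressed intracellularly from a pBAD plasmid library in pooled LB shake-flask culture, induced with 0.3% L-arabinose, DNA abundance read by NGS, three biological replicates, DESeq2 with apeglm shrinkage.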

Point of comparison: RRIRARPPRLPRPRPRPDSMPRP, “shrunken log2 fold change” value 0.02. Against it:
- RRIRARPPRLPRPRPRPAANPRP — higher, 0.741
- RRIRARPPRLPRPRPRPAAPPRP — higher, 0.99
- RRIRARPPRLPRPRPRPAAWPRP — higher, 0.613
- RRIRARPPRLPRPRPRPADMPRP — within 0.2 log units, 0.194
- RRIRARPPRLPRPRPRPAFAPRP — higher, 0.685
- RRIRARPPRLPRPRPRPAFKPRP — within 0.2 log units, 0.126
- RRIRARPPRLPRPRPRPAFVPRP — higher, 0.315
- RRIRARPPRLPRPRPRPAITPRP — higher, 0.322
- RRIRARPPRLPRPRPRPAIWPRP — higher, 0.709
- RRIRARPPRLPRPRPRPAKDPRP — higher, 0.316
- RRIRARPPRLPRPRPRPAMLPRP — higher, 0.226
- RRIRARPPRLPRPRPRPANFPRP — within 0.2 log units, 0.137
- RRIRARPPRLPRPRPRPANIPRP — lower, -0.19
- RRIRARPPRLPRPRPRPAPAPRP — higher, 0.922
- RRIRARPPRLPRPRPRPAQFPRP — higher, 0.509
- RRIRARPPRLPRPRPRPAQWPRP — higher, 0.252
- RRIRARPPRLPRPRPRPASDPRP — higher, 0.661
- RRIRARPPRLPRPRPRPATHPRP — within 0.2 log units, 0.186
- RRIRARPPRLPRPRPRPAVNPRP — within 0.2 log units, 0.102
- RRIRARPPRLPRPRPRPAVPPRP — higher, 0.848
- RRIRARPPRLPRPRPRPAVTPRP — within 0.2 log units, 0.214
- RRIRARPPRLPRPRPRPAWNPRP — within 0.2 log units, -0.132
- RRIRARPPRLPRPRPRPAYNPRP — within 0.2 log units, 0.0748
- RRIRARPPRLPRPRPRPAYTPRP — within 0.2 log units, -0.0472
- RRIRARPPRLPRPRPRPCAAPRP — higher, 0.893
- RRIRARPPRLPRPRPRPCDCPRP — lower, -0.21
- RRIRARPPRLPRPRPRPCEKPRP — within 0.2 log units, 0.0244
- RRIRARPPRLPRPRPRPCESPRP — within 0.2 log units, 0.214
- RRIRARPPRLPRPRPRPCEVPRP — higher, 3.46
- RRIRARPPRLPRPRPRPCFMPRP — within 0.2 log units, -0.0304
- RRIRARPPRLPRPRPRPCHIPRP — within 0.2 log units, 0.00153
- RRIRARPPRLPRPRPRPCHKPRP — lower, -0.259
- RRIRARPPRLPRPRPRPCHVPRP — within 0.2 log units, -0.0999
- RRIRARPPRLPRPRPRPCNLPRP — lower, -0.314
- RRIRARPPRLPRPRPRPCNSPRP — within 0.2 log units, -0.0983
- RRIRARPPRLPRPRPRPCPTPRP — within 0.2 log units, 0.088
- RRIRARPPRLPRPRPRPCQLPRP — within 0.2 log units, -0.0907
- RRIRARPPRLPRPRPRPCSNPRP — within 0.2 log units, -0.153
- RRIRARPPRLPRPRPRPCSVPRP — within 0.2 log units, 0.0736
- RRIRARPPRLPRPRPRPCTTPRP — within 0.2 log units, 0.184
- RRIRARPPRLPRPRPRPCWLPRP — higher, 0.294
- RRIRARPPRLPRPRPRPCYVPRP — lower, -0.279
- RRIRARPPRLPRPRPRPDAAPRP — higher, 1.48
- RRIRARPPRLPRPRPRPDDLPRP — within 0.2 log units, -0.00225
- RRIRARPPRLPRPRPRPDDTPRP — higher, 0.468
- RRIRARPPRLPRPRPRPDDVPRP — within 0.2 log units, 0.0875
- RRIRARPPRLPRPRPRPDDWPRP — higher, 1.12
- RRIRARPPRLPRPRPRPDEPPRP — within 0.2 log units, 0.0489
- RRIRARPPRLPRPRPRPDERPRP — higher, 0.423
- RRIRARPPRLPRPRPRPDFCPRP — within 0.2 log units, 0.168
- RRIRARPPRLPRPRPRPDFMPRP — higher, 0.466
- RRIRARPPRLPRPRPRPDFTPRP — within 0.2 log units, -0.0266
- RRIRARPPRLPRPRPRPDFWPRP — higher, 0.289
- RRIRARPPRLPRPRPRPDGIPRP — higher, 0.446
- RRIRARPPRLPRPRPRPDGRPRP — within 0.2 log units, 0.197
- RRIRARPPRLPRPRPRPDIDPRP — higher, 0.462
- RRIRARPPRLPRPRPRPDINPRP — within 0.2 log units, 0.0789
- RRIRARPPRLPRPRPRPDIPPRP — lower, -0.192
- RRIRARPPRLPRPRPRPDIQPRP — within 0.2 log units, -0.149
- RRIRARPPRLPRPRPRPDIWPRP — higher, 0.69
- RRIRARPPRLPRPRPRPDKPPRP — higher, 0.865
- RRIRARPPRLPRPRPRPDMDPRP — higher, 0.3
- RRIRARPPRLPRPRPRPDMYPRP — within 0.2 log units, -0.0823
- RRIRARPPRLPRPRPRPDPVPRP — higher, 0.688
- RRIRARPPRLPRPRPRPDQQPRP — within 0.2 log units, -0.0359
- RRIRARPPRLPRPRPRPDSCPRP — within 0.2 log units, 0.156
- RRIRARPPRLPRPRPRPDSEPRP — higher, 0.481
- RRIRARPPRLPRPRPRPDSNPRP — within 0.2 log units, 0.179
- RRIRARPPRLPRPRPRPDVCPRP — within 0.2 log units, -0.0214
- RRIRARPPRLPRPRPRPDWFPRP — higher, 0.408
- RRIRARPPRLPRPRPRPDWGPRP — higher, 0.272
- RRIRARPPRLPRPRPRPDYPPRP — within 0.2 log units, -0.0306
- RRIRARPPRLPRPRPRPEAHPRP — within 0.2 log units, 0.0341
- RRIRARPPRLPRPRPRPEAKPRP — higher, 0.73
- RRIRARPPRLPRPRPRPECEPRP — within 0.2 log units, 0.0705
- RRIRARPPRLPRPRPRPECIPRP — higher, 0.781
- RRIRARPPRLPRPRPRPEDIPRP — higher, 0.473
- RRIRARPPRLPRPRPRPEDLPRP — within 0.2 log units, 0.0217
- RRIRARPPRLPRPRPRPEFCPRP — higher, 0.83
- RRIRARPPRLPRPRPRPEHLPRP — within 0.2 log units, 0.108
- RRIRARPPRLPRPRPRPEIRPRP — within 0.2 log units, 0.132
- RRIRARPPRLPRPRPRPEKKPRP — higher, 0.275
- RRIRARPPRLPRPRPRPELDPRP — higher, 1.78
- RRIRARPPRLPRPRPRPEMVPRP — within 0.2 log units, 0.00546
- RRIRARPPRLPRPRPRPENVPRP — higher, 0.251
- RRIRARPPRLPRPRPRPEQCPRP — higher, 0.42
- RRIRARPPRLPRPRPRPEQNPRP — higher, 0.928
- RRIRARPPRLPRPRPRPEQQPRP — higher, 0.785
- RRIRARPPRLPRPRPRPESEPRP — higher, 3.51
- RRIRARPPRLPRPRPRPESVPRP — higher, 0.886
- RRIRARPPRLPRPRPRPETAPRP — higher, 0.236
- RRIRARPPRLPRPRPRPEVIPRP — higher, 0.349
- RRIRARPPRLPRPRPRPEVRPRP — higher, 0.623
- RRIRARPPRLPRPRPRPEWIPRP — within 0.2 log units, 0.129
- RRIRARPPRLPRPRPRPEWPPRP — higher, 0.591
- RRIRARPPRLPRPRPRPEWVPRP — higher, 0.775
- RRIRARPPRLPRPRPRPEWWPRP — higher, 0.945
- RRIRARPPRLPRPRPRPEYDPRP — higher, 0.695
- RRIRARPPRLPRPRPRPFFGPRP — higher, 0.349
- RRIRARPPRLPRPRPRPFFNPRP — within 0.2 log units, -0.0671
- RRIRARPPRLPRPRPRPFFPPRP — higher, 0.527
- RRIRARPPRLPRPRPRPFGNPRP — within 0.2 log units, -0.148
- RRIRARPPRLPRPRPRPFGVPRP — within 0.2 log units, 0.165
- RRIRARPPRLPRPRPRPFHIPRP — lower, -0.906
- RRIRARPPRLPRPRPRPFKEPRP — within 0.2 log units, -0.0239
- RRIRARPPRLPRPRPRPFKLPRP — lower, -0.39
- RRIRARPPRLPRPRPRPFLVPRP — lower, -0.205
- RRIRARPPRLPRPRPRPFLYPRP — within 0.2 log units, -0.0961
